From US20210355194A1 (TWIST BIOSCIENCE, published 2021)

B1: variant 6-45 (Fc fusion)
VHH: EVQLVESGGGLVQPGGSLRLSCAASGNMFSINAMGWFRQAPGKEREFVTLISWSSGRTSYADSVKGRFTISADNSKNTAYLQMNSLKPEDTAVYYCASLGYCSGGSCFDYWGQGTLVTVSS
B2: variant 6-51 (Fc fusion)
VHH: EVQLVESGGGLVQPGGSLRLSCAASGYTYSSYVMGWFRQAPGKEREFVAAISRFGSTYYADSVKGRFTISADNSKNTAYLQMNSLKPEDTAVYYCARDSGEHFWDSGYIDHWGQGTLVTVSS
B3: variant 6-63 (Fc fusion)
VHH: EVQLVESGGGLVQPGGSLRLSCAASGQTFNMGWFRQAPGKEREFVAAIGSGGSTSYADSVKGRFTISADNSKNTAYLQMNSLKPEDTAVYYCWRLGNDYFDYWGQGTLVTVSS
notes: VHH-Fc
B4: variant 6-40 (Fc fusion)
VHH: EVQLVESGGGLVQPGGSLRLSCAASGFTFSDYWMGWFRQAPGKERELVARVWWNGGSAYYADSVKGRFTISADNSKNTAYLQMNSLKPEDTAVYYCAREVLRQQVVLDYWGQGTLVTVSS
B5: variant 6-42 (Fc fusion)
VHH: EVQLVESGGGLVQPGGSLRLSCAASGDTYGSYWMGWFRQAPGKEREFVAVITSGGSTNYADSVKGRFTISADNSKNTAYLQMNSLKPEDTAVYYCTHVQNSYYYAMDVWGQGTLVTVSS
B6: variant 6-41 (Fc fusion)
VHH: EVQLVESGGGLVQPGGSLRLSCAASGFTFSTSWMGWFRQAPGKEREFVASINEYGGRNYADSVKGRFTISADNSKNTAYLQMNSLKPEDTAVYYCAGLHYYYDSSGYNPTEYYGMDVWGQGTLVTVSS
B7: variant 6-71 (Fc fusion)
VHH: EVQLVESGGGLVQPGGSLRLSCAASGITFSNDAMGWFRQAPGKEREFVAIITSSDTNDTTNYADSVKGRFTISADNSKNTAYLQMNSLKPEDTAVYYCARLHYYDSSGYFDYWGQGTLVTVSS
B8: variant 6-99 (Fc fusion)
VHH: EVQLVESGGGLVQPGGSLRLSCAASGIPFRSRTMGWFRQAPGKEREFVAGISRSGASTAYADSVKGRFTISADNSKNTAYLQMNSLKPEDTAVYYCTHANDYGDYWGQGTLVTVSS
B9: variant 6-97 (Fc fusion)
VHH: EVQLVESGGGLVQPGGSLRLSCAASGFTFSSLAMGWFRQAPGKEREFVAAITWSGDITNYADSVKGRFTITADNSKNTAYLQMNSLKPEDTAVYYCLRLSSSGFDHWGQGTLVTVSS
B10: variant 6-84 (Fc fusion)
VHH: EVQLVESGGGLVQPGGSLRLSCAASGFTPDDYAMGWFRQAPGKEREFVAAINSGGSYTYYADSVKGRFTISADNSKNTAYLQMNSLKPEDTAVYYCARDRGPWGQGTLVTVSS
B11: variant 6-79 (Fc fusion)
VHH: EVQLVESGGGLVQPGGSLRLSCAASGSISSIDYMGWFRQAPGKEREGVSWISSSDGSTYYADSVKGRFTISADNSKNTAYLQMNSLKPEDTAVYYCARSPSFSQIYYYYYMDVWGQGTLVTVSS
B12: variant 6-70 (Fc fusion)
VHH: EVQLVESGGGLVQPGGSLRLSCAASGFNLDDYADMGWFRQAPGKEREFVAAIGWGGGSTRYADSVKGRFTISADNSKNTAYLQMNSLKPEDTAVYYCAREILWFGEFGEPNVWGQGTLVTVSS
B13: variant 6-103 (Fc fusion)
VHH: EVQLVESGGGLVQPGGSLRLSCAASGRTSSPIAMGWFRQAPGKEREPVAVRWSDDYTYYADSVKGRFTISADNSKNTAYLQMNSLKPEDTAVYYCAKKLGGYYAFDIWGQGTLVTVSS
B14: variant 6-102 (Fc fusion)
VHH: EVQLVESGGGLVQPGGSLRLSCAASGSSFSAYAMGWFRQAPGKEREFVSAIDSEGTTTYADSVKGRFTISADNSKNTAYLQMNSLKPEDTAVYYCAGDYNFWSGFDHWGQGTLVTVSS
B15: variant 6-47 (Fc fusion)
VHH: EVQLVESGGGLVQPGGSLRLSCAASGRTFSMHAMGWFRQAPGKERELVASITYGGNINYADSVKGRFTISADNSKNTAYLQMNSLKPEDTAVYYCAKEGYYDSTGYRTYFQQWGQGTLVTVSS
B16: variant 6-43 (Fc fusion)
VHH: EVQLVESGGGLVQPGGSLRLSCAASGRTFSSYAMMGWFRQAPGKEREFVASVNWDASQINYADSVKGRFTISADNSKNTAYLQMNSLKPEDTAVYYCTTLGAVYFDSSGYHDYFDYWGQGTLVTVSS
B17: variant 6-53 (Fc fusion)
VHH: EVQLVESGGGLVQPGGSLRLSCAASGISINTNVMGWFRQAPGKEREFVAAISTGSVTIYADSVKGRFTISADNSKNTAYLQMNSLKPEDTAVYYCARVDDFGYFDLWGQGTLVTVSS
B18: variant 6-46 (Fc fusion)
VHH: EVQLVESGGGLVQPGGSLRLSCAASGLTFSAMGWFRQAPGKEREFVALIRRDGSTIYADSVKGRFTISADNSKNTAYLQMNSLKPEDTAVYYCAALGILFGYDAFDIWGQGTLVTVSS
B19: variant 6-54 (Fc fusion)
VHH: EVQLVESGGGLVQPGGSLRLSCAASGFEFENHWMGWFRQAPGKEREYVAHITAGGLSNYADSVKGRFTISADNSKNTAYLQMNSLKPEDTAVYYCGRHWGIYDSSGFSSFDYWGQGTLVTVSS
B20: variant 6-66 (Fc fusion)
VHH: EVQLVESGGGLVQPGGSLRLSCAASGLTFSLFAMGWFRQAPGKERELVAAISSGGSTDYADSVKGRFTISADNSKNTAYLQMNSLKPEDTAVYYCARGNTKYYYDSSGYSSAFDYWGQGTLVTVSS
B21: variant 6-67 (Fc fusion)
VHH: EVQLVESGGGLVQPGGSLRLSCAASGSFSNYAMGWFRQAPGKEREFVAAISSSGALTSYADSVKGRFTISADNSKNTAYLQMNSLKPEDTAVYYCWIVGPGPLDGMDVWGQGTLVTVSS
B22: variant 6-44 (Fc fusion)
VHH: EVQLVESGGGLVQPGGSLRLSCAASGGTFGVYHMGWFRQAPGKEREFIGRITWTDGSTYYADSVKGRFTISADNSKNTAYLQMNSLKPEDTAVYYCFGLLEVYDMTFDYWGQGTLVTVSS
B23: variant 6-52 (Fc fusion)
VHH: EVQLVESGGGLVQPGGSLRLSCAASGDTYGSYWMGWFRQAPGKEREVVAAITSGGSTVYADSVKGRFTISADNSKNTAYLQMNSLKPEDTAVYYCARVDSRFDYWGQGTLVTVSS
B24: variant 6-57 (Fc fusion)
VHH: EVQLVESGGGLVQPGGSLRLSCAASGLTFDDHSMGWFRQAPGKEREFVAAVPLSGNTYYADSVKGRFTISADNSKNTAYLQMNSLKPEDTAVYYCASFSGGPADFDYWGQGTLVTVSS
B25: variant 6-90 (Fc fusion)
VHH: EVQLVESGGGLVQPGGSLRLSCAASGFPFSIWPMGWFRQAPGKEREFVAAVRWSSTYYADSVKGRFTISADNSKNTAYLQMNSLKPEDTAVYYCATGECDGGSCSLAYWGQGTLVTVSS
B26: variant 6-62 (Fc fusion)
VHH: EVQLVESGGGLVQPGGSLRLSCAASGSTFSGNWMGWFRQAPGKEREFVAVISWTGGSTYYADSVKGRFTISADNSKNTAYLQMNSLKPEDTAVYYCATHNSLSGFDYWGQGTLVTVSS
B27: variant 6-72 (Fc fusion)
VHH: EVQLVESGGGLVQPGGSLRLSCAASGSTLSINAMGWFRQAPGKEREFVAAIDWSGGSTAYADSVKGRFTISADNSKNTAYLQMNSLKPEDTAVYYCARDSSATRTGPDYWGQGTLVTVSS
B28: variant 6-82 (Fc fusion)
VHH: EVQLVESGGGLVQPGGSLRLSCAASGSSLDAYGMGWFRQAPGKEREFVAAISWGGGSIYYADSVKGRFTISADNSKNTAYLQMNSLKPEDTAVYYCARLSQGMVALDYWGQGTLVTVSS
B29: variant 6-74 (Fc fusion)
VHH: EVQLVESGGGLVQPGGSLRLSCAASGFAFGDSWMGWFRQAPGKERELVAAITSGGSTDYADSVKGRFTISADNSKNTAYLQMNSLKPEDTAVYYCARGLLWFGELFGYWGQGTLVTVSS
B30: variant 6-65 (Fc fusion)
VHH: EVQLVESGGGLVQPGGSLRLSCAASGLPFSTLHMGWFRQAPGKEREFVASLSIFGATGYADSVKGRFTISADNSKNTAYLQMNSLKPEDTAVYYCWMYYYDSSGYYGNYYYGMDVWGQGTLVTVSS
B31: variant 6-68 (Fc fusion)
VHH: EVQLVESGGGLVQPGGSLRLSCAASGFTLSDRAMGWFRQAPGKEREYVAHITAGGLSNYADSVKGRFTISADNSKNTAYLQMNSLKPEDTAVYYCVHLASQTGAGYFDLWGQGTLVTVSS
B32: variant 6-81 (Fc fusion)
VHH: EVQLVESGGGLVQPGGSLRLSCAASGFIGNYHAMGWFRQAPGKEREFVAAVTWSGGTTNYADSVKGRFTISADNSKNTAYLQMNSLKPEDTAVYYCAREGYYYDSSGYPYYFDYWGQGTLVTVSS
B33: variant 6-49 (Fc fusion)
VHH: EVQLVESGGGLVQPGGSLRLSCAASGSTVLINAMGWFRQAPGKEREFVAAISWSPGRTDYADSVKGRFTISADNSKNTAYLQMNSLKPEDTAVYYCARDCSGGSCYSGDYWGQGTLVTVSS
B34: variant 6-75 (Fc fusion)
VHH: EVQLVESGGGLVQPGGSLRLSCAASGGTFSTYWMGWFRQAPGKEREFVAAISRSGGNTYYADSVKGRFTISADNSKNTAYLQMNSLKPEDTAVYYCVRHSGTDGDSSFDYWGQGTLVTVSS

Biological target: T1, Acro SARS-CoV-2 (COVID-19) S1 protein (SARS-CoV-2, UniProt P0DTC2 16-685)
T1 construct: also called SARS-CoV-2 S1
Experiment: SPR

Binder | Kd
B1 | 17.5 nM
B2 | 35.2 nM
B3 | 21.8 nM
B4 | 44.3 nM
B5 | 10.1 nM
B6 | 51.5 nM
B7 | 155 nM
B8 | 51.6 nM
B9 | 4070 nM
B10 | 82.6 nM
B11 | 158 nM
B12 | 35.9 nM
B13 | 23.6 nM
B14 | 45.7 nM
B15 | 43.9 nM
B16 | 17.9 nM
B17 | 140 nM

Binder | Kd
B18 | 18.1 nM
B19 | 144 nM
B20 | 293 nM
B21 | 55.6 nM
B22 | 8.2 nM
B23 | 31.2 nM
B24 | 205 nM
B25 | 114 nM
B26 | 151 nM
B27 | 92.8 nM
B28 | 7.1 nM
B29 | 73.9 nM
B30 | 890 nM
B31 | 102 nM
B32 | 12.9 nM
B33 | 58.2 nM
B34 | 181 nM
